Reference: US20240101646A1 (VANDERBILT UNIVERSITY, published 2024)

Molecular target: T1, SARS-CoV-2 NTD (SARS-CoV-2, UniProt P0DTC2 14-305)
T1 construct: domain: NTD
Assay: ELISA, antigen plated at 2 µg/mL (FIG. 12A)

B1: antibody 5317-10 (antibody, V domains shown)
VH: EVQLVQSGAEVKKPGESLTISCKASGYRFTSNWITWVRQMPGKGLEWMGRIDPDDPYSNSSPSFQGHATLSLDKAINTAYLHWSSLKASDTAMYYCARVNRVGDGPDFWGQGTLVTVSS
VL: DIVMTQSPLSLPVTPGEPASISCRSSQSLLFGNGYTYLNWYLQKPGQSPQLLIYLGSNRASGVPDRFSVSGSGTDFTLIISRVEAEDVGVYFCMQALQTPWTFGQGTKVEIK
binding result: no binding
